Measurements taken from article PMC3965382.

Biological target: T1, purified Gαs, P63092
T1 chain: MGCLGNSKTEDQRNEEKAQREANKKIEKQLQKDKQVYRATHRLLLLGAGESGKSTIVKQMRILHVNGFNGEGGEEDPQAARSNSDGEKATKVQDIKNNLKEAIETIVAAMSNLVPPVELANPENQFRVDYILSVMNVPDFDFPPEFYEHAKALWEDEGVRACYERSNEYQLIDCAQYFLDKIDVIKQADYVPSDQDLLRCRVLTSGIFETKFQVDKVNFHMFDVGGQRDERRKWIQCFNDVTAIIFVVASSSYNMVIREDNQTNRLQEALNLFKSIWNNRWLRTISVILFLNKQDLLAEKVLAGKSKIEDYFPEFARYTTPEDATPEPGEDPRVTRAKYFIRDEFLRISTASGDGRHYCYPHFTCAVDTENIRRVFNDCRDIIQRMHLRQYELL
Assay: SPR
Settings: chain shown with the change, read off a plot

response (500 nM coronin 1 injected over immobilized Gαs, parent: est. 120): 25 RU
response (1000 nM coronin 1 injected over immobilized Gαs, parent: est. 400): 76 RU
B1: wild-type coronin 1, HA-tagged, O89053 K20A; R69A; K355A; E102A (protein)
chain: MSRQVVRSSKFRHVFGQPAAADQCYEDVRVSQTTWDSGFCAVNPKFMALICEASGGGAFLVLPLGKTGAVDKNVPLVCGHTAPVLDIAWCPHNDNVIASGSADCTVMVWEIPDGGLVLPLREPVITLEGHTKRVGIVAWHPTAQNVLLSAGCDNVILVWDVGTGAAVLTLGPDVHPDTIYSVDWSRDGALICTSCRDKRVRVIEPRKGTVVAEKDRPHEGTRPVHAVFVSEGKILTTGFSRMSERQVALWDTKHLEEPLSLQELDTSSGVLLPFFDPDTNIVYLCGKGDSSIRYFEITSEAPFLHYLSMFSSKESQRGMGYMPKRGLEVNKCEIARFYKLHERKCEPIAMTVPRASDLFQEDLYPPTAGPDPALTAEEWLGGRDAGPLLISLKDGYVPPKSRELRVNRGLDSARRRATPEPSGTPSSDTVSRLEEDVRNLNAIVQKLQERLDRLEETVQAK
